Measured values reported in patent publication US20140274782A1, “AFFINITY REAGENTS AND METHODS FOR DETECTION, PURIFICATION, AND PROTEOMIC ANALYSIS OF METHYLATED PROTEINS” (The Board of Trustees of the Leland Stanford Junior …, priority 2013, published 2014).

T1: G9a and GLP (Homo sapiens, UniProt Q96KQ7+Q9H9B1)
T1 sequence (Q96KQ7 2-1210 limits assumed): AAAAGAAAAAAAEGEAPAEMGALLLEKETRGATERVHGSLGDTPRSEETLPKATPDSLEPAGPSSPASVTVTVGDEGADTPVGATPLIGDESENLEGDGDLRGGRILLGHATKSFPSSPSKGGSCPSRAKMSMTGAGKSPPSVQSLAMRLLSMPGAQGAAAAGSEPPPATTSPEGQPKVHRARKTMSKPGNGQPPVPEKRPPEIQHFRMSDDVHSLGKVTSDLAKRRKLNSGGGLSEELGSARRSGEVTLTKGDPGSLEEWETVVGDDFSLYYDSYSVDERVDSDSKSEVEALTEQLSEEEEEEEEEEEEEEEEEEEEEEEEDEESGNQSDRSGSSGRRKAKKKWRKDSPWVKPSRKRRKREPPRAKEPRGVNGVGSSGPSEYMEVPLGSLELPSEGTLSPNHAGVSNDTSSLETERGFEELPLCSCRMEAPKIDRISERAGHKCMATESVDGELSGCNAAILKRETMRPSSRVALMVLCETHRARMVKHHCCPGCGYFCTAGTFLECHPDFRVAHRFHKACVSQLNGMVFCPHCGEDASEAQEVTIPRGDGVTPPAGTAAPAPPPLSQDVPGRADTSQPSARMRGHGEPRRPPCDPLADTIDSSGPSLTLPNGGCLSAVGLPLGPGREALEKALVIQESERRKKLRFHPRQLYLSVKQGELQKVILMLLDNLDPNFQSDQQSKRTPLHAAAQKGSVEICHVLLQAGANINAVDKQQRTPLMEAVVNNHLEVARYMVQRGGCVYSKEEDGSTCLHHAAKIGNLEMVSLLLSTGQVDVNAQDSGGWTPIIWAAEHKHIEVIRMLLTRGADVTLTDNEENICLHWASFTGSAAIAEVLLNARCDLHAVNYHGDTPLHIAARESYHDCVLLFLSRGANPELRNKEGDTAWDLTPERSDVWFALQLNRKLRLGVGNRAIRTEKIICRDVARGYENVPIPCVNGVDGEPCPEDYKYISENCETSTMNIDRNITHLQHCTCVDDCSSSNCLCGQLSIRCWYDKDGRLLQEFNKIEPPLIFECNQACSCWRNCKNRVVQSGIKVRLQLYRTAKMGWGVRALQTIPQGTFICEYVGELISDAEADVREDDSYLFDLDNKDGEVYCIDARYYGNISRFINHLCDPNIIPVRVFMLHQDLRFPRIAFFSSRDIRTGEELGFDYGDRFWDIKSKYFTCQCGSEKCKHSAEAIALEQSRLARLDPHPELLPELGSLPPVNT
T1 sequence (Q9H9B1 2-1298 limits assumed): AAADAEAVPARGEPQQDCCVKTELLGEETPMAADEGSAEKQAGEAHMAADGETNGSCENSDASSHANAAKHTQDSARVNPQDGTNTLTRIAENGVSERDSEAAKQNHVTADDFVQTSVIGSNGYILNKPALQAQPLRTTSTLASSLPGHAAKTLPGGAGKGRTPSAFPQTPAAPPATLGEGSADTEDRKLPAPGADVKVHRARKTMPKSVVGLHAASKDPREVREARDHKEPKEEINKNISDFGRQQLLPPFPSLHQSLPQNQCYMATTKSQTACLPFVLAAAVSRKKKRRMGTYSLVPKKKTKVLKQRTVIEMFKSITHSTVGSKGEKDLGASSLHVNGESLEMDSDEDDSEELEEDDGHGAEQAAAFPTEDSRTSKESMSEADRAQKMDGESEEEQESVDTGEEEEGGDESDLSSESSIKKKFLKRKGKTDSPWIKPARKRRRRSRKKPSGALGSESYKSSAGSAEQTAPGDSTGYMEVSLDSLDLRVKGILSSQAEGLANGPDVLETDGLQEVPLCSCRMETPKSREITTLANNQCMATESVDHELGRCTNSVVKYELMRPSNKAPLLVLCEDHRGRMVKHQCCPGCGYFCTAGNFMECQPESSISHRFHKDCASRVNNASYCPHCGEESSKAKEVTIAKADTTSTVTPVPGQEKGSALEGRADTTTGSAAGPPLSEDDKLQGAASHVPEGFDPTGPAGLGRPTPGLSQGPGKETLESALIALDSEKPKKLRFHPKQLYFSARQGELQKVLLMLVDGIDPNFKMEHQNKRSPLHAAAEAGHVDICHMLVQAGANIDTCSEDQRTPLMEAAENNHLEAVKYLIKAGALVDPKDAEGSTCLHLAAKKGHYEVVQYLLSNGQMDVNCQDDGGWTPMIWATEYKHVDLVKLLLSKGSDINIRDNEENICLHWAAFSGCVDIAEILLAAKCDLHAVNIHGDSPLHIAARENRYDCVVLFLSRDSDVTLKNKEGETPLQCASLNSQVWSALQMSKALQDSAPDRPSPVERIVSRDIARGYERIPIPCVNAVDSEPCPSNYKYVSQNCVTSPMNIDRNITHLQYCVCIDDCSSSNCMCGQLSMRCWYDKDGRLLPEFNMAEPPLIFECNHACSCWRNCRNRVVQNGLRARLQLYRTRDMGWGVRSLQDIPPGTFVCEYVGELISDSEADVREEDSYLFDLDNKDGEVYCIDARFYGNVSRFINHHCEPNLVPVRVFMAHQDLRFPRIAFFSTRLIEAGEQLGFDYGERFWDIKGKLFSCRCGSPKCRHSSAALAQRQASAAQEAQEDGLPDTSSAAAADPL


Columns and labels:
G9a and GLP = biological target: T1, G9a and GLP; assay: Triple SILAC pull-down after UNC0638 treatment of 293T cells, DMSO/UNC0638 ratio of protein captured by 3×MBT; assay type: cell-based; design: endogenous in cells; host or cells: HEK 293T; details: for Relative to UNC0638 UNC Light: UNC0638 in light SILAC media; for Relative to UNC0638 Average: average of UNC Light and UNC Heavy experiments; for Relative to UNC0638 UNC Heavy: UNC0638 in heavy SILAC media;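 for all read-outs here: mass spectrometry (Q-Exactive) SILAC quantitation, DMSO/UNC0638 ratio computed after subtracting 3×MBTD355N mutant pull-down background, only proteins with at least twofold 3×MBT over mutant signal considered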
Experimental: For UNC0638 treatments cells were treated for 24 hours with UNC0638 at 2.5 μM or DMSO vehicle control. One experiment treated cells in light media with UNC0638, the other treated cells in heavy media. Both experiments included cells in medium media treated with DMSO for negative control pull-down with 3×MBTD355N.
UNC0638 treatment experiments used a Q-Exactive mass spectrometer (ThermoFisher Scientific). A 25 cm HPLC column with 3 μm Reliasil (Orochem) was used to separate peptides over a 4 hour gradient from 0 to 75% acetonitrile. Ions were generated using a custom nanospray source flowing at 250 nL/minute. Mass spectrometry settings were 70,000 MS1 resolution, data dependent selection of up to 20 precursor ions per cycle, dynamic exclusion of 30 seconds and isolation window of 2 m/z.
For UNC0638 experiments the treated vs. untreated ratio was determined by subtracting the value from 3×MBTD355N prior to dividing values from the light and heavy channels. Only proteins showing a two-fold signal to background ratio (3×MBT/3×MBTD355N) were evaluated as potential G9a/GLP substrates.

3×MBT domain of L3MBTL1 = assay: Triple SILAC pull-down, 3xMBT/3xMBTD355N ratio (cytoplasmic, nuclear and chromatin fractions of 293T cells); assay type: binding, human; details: for 3xMBT/D355N UNC Heavy: experiment with UNC0638 in heavy SILAC media; for 3xMBT/D355N UNC Light: experiment with UNC0638 in light SILAC media;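 for all read-outs here: proteins quantified with MaxQuant, requiring at least two unique peptides and quantification in both label directions, normalized to the mean of proteins from a digested loading control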
[1] = SILAC ratio DMSO relative to UNC0638, pull-down with 3xMBT, all values in log base 2
[2] = SILAC ratio 3xMBT vs 3xMBTD355N pull-down, 293T cells, all values in log base 2
[3] = SILAC ratio DMSO/UNC0638 of protein pulled down with 3xMBT
[4] = SILAC ratio, pull-down 3xMBT vs 3xMBTD355N

Molecule | Relative to UNC0638 UNC Light (G9a and GLP; [1]) | Relative to UNC0638 Average (G9a and GLP; all values in log base 2) | 3xMBT/D355N UNC Heavy (3×MBT domain of L3MBTL1; [2]) | 3xMBT/D355N UNC Light (3×MBT domain of L3MBTL1; [2]) | Relative to UNC0638 UNC Heavy (G9a and GLP; [1]) | Relative to UNC0638 UNC Heavy (G9a and GLP; [3]) | Relative to UNC0638 UNC Light (G9a and GLP; [3]) | Relative to UNC0638 Average (G9a and GLP) | Candidate G9a/GLP target (G9a and GLP; reduced association with 3xMBT after UNC0638 treatment) | 3xMBT/D355N UNC Heavy (3×MBT domain of L3MBTL1; [4]) | 3xMBT/D355N UNC Light (3×MBT domain of L3MBTL1; [4])
CTNND1 (protein, UniProt O60716 1-968, looked up) Catenin delta-1: MDDSEVESTASILASVKEQEAQFEKLTRALEEERRHVSAQLERVRVSPQDANPLMANGTLTRRHQNGRFVGDADLERQKFSDLKLNGPQDHSHLLYSTIPRMQEPGQIVETYTEEDPEGAMSVVSVETSDDGTTRRTETTVKKVVKTVTTRTVQPVAMGPDGLPVDASSVSNNYIQTLGRDFRKNGNGGPGPYVGQAGTATLPRNFHYPPDGYSRHYEDGYPGGSDNYGSLSRVTRIEERYRPSMEGYRAPSRQDVYGPQPQVRVGGSSVDLHRFHPEPYGLEDDQRSMGYDDLDYGMMSDYGTARRTGTPSDPRRRLRSYEDMIGEEVPSDQYYWAPLAQHERGSLASLDSLRKGGPPPPNWRQPELPEVIAMLGFRLDAVKSNAAAYLQHLCYRNDKVKTDVRKLKGIPVLVGLLDHPKKEVHLGACGALKNISFGRDQDNKIAIKNCDGVPALVRLLRKARDMDLTEVITGTLWNLSSHDSIKMEIVDHALHALTDEVIIPHSGWEREPNEDCKPRHIEWESVLTNTAGCLRNVSSERSEARRKLRECDGLVDALIFIVQAEIGQKDSDSKLVENCVCLLRNLSYQVHREIPQAERYQEAAPNVANNTGPHAASCFGAKKGKDEWFSRGKKPIEDPANDTVDFPKRTSPARGYELLFQPEVVRIYISLLKESKTPAILEASAGAIQNLCAGRWTYGRYIRSALRQEKALSAIADLLTNEHERVVKAASGALRNLAVDARNKELIGKHAIPNLVKNLPGGQQNSSWNFSEDTVISILNTINEVIAENLEAAKKLRETQGIEKLVLINKSGNRSEKEVRAAALVLQTIWGYKELRKPLEKEGWKKSDFQVNLNNASRSQSSHSYDDSTLPLIDRNQKSDKKPDREEIQMSNMGSNTKSLDNNYSTPNERGDHNRTLDRSGDLGDMEPLKGTTPLMQDEGQESLEEELDVLVLDDEGGQVSYPSMQKI | −0.49 log base 2 | −0.49 log base 2 | 0.67 log base 2 | 2.07 log base 2 |  |  |  |  |  |  | 
CSRP2 (protein, UniProt Q16527 1-193, looked up) Cysteine and glycine-rich …: MPVWGGGNKCGACGRTVYHAEEVQCDGRSFHRCCFLCMVCRKNLDSTTVAIHDEEIYCKSCYGKKYGPKGYGYGQGAGTLNMDRGERLGIKPESVQPHRPTTNPNTSKFAQKYGGAEKCSRCGDSVYAAEKIIGAGKPWHKNCFRCAKCGKSLESTTLTEKEGEIYCKGCYAKNFGPKGFGYGQGAGALVHAQ | −0.49 log base 2 | −0.54 log base 2 | 1.27 log base 2 | 1.96 log base 2 | −0.58 log base 2 |  |  |  |  |  | 
DDX46 (protein, UniProt Q7L014 2-1031, looked up) Probable ATP-dependent RNA …: GRESRHYRKRSASRGRSGSRSRSRSPSDKRSKRGDDRRSRSRDRDRRRERSRSRDKRRSRSRDRKRLRRSRSRERDRSRERRRSRSRDRRRSRSRSRGRRSRSSSPGNKSKKTENRSRSKEKTDGGESSKEKKKDKDDKEDEKEKDAGNFDQNKLEEEMRKRKERVEKWREEQRKKAMENIGELKKEIEEMKQGKKWSLEDDDDDEDDPAEAEKEGNEMEGEELDPLDAYMEEVKEEVKKFNMRSVKGGGGNEKKSGPTVTKVVTVVTTKKAVVDSDKKKGELMENDQDAMEYSSEEEEVDLQTALTGYQTKQRKLLEPVDHGKIEYEPFRKNFYVEVPELAKMSQEEVNVFRLEMEGITVKGKGCPKPIKSWVQCGISMKILNSLKKHGYEKPTPIQTQAIPAIMSGRDLIGIAKTGSGKTIAFLLPMFRHIMDQRSLEEGEGPIAVIMTPTRELALQITKECKKFSKTLGLRVVCVYGGTGISEQIAELKRGAEIIVCTPGRMIDMLAANSGRVTNLRRVTYVVLDEADRMFDMGFEPQVMRIVDNVRPDRQTVMFSATFPRAMEALARRILSKPIEVQVGGRSVVCSDVEQQVIVIEEEKKFLKLLELLGHYQESGSVIIFVDKQEHADGLLKDLMRASYPCMSLHGGIDQYDRDSIINDFKNGTCKLLVATSVAARGLDVKHLILVVNYSCPNHYEDYVHRAGRTGRAGNKGYAYTFITEDQARYAGDIIKALELSGTAVPPDLEKLWSDFKDQQKAEGKIIKKSSGFSGKGFKFDETEQALANERKKLQKAALGLQDSDDEDAAVDIDEQIESMFNSKKRVKDMAAPGTSSVPAPTAGNAEKLEIAKRLALRINAQKNLGIESQDVMQQATNAILRGGTILAPTVSAKTIAEQLAEKINAKLNYVPLEKQEEERQDGGQNESFKRYEEELEINDFPQTARWKVTSKEALQRISEYSEAAITIRGTYFPPGKEPKEGERKIYLAIESANELAVQKAKAEITRLIKEELIRLQNSYQPTNKGRYKVL |  |  |  |  |  | 0.53 log base 2 | 0.33 log base 2 | 0.43 log base 2 | ✓ | 2.10 log base 2 | 2.67 log base 2
CHEK1 (protein, UniProt O14757 1-476, looked up) Serine/threonine-protein …: MAVPFVEDWDLVQTLGEGAYGEVQLAVNRVTEEAVAVKIVDMKRAVDCPENIKKEICINKMLNHENVVKFYGHRREGNIQYLFLEYCSGGELFDRIEPDIGMPEPDAQRFFHQLMAGVVYLHGIGITHRDIKPENLLLDERDNLKISDFGLATVFRYNNRERLLNKMCGTLPYVAPELLKRREFHAEPVDVWSCGIVLTAMLAGELPWDQPSDSCQEYSDWKEKKTYLNPWKKIDSAPLALLHKILVENPSARITIPDIKKDRWYNKPLKKGAKRPRVTSGGVSESPSGFSKHIQSNLDFSPVNSASSEENVKYSSSQPEPRTGLSLWDTSPSYIDKLVQGISFSQPTCPDHMLLNSQLLGTPGSSQNPWQRLVKRMTRFFTKLDADKSYQCLKETCEKLGYQWKKSCMNQVTISTTDRRNNKLIFKVNLLEMDDKILVDFRLSKGDGLEFKRHFLKIKGKLIDIVSSQKIWLPAT | −0.99 log base 2 | −0.99 log base 2 | 0.09 log base 2 | 0.46 log base 2 |  |  |  |  |  |  | 
